Starred links: 1 amine or outer side, 2 acyl side, 3 side chain; linkers in the order of their positions; H or OH if unused. Positions of bridges follow the written chain, without caps; N, C: chain ends. Non-standard residues stand in square brackets, D forms with d. Primed or numbered codes have the meaning given here. PyrS(3) = (S)-1-((allyloxy)carbonyl)-3-aminopyrrolidine-3-carboxylic acid, stapling residue, C=CCOC(=O)N1CC[C@@](N[*:1])(C(=O)[*:2])C1; PyrS″ = (S)-1-((allyloxy)carbonyl)-3-aminopyrrolidine-3-carboxylic acid (stapling residue), C=CCOC(=O)N1CC[C@@](N[*:1])(C(=O)[*:2])C1; PyrS = (S)-1-((allyloxy)carbonyl)-3-aminopyrrolidine-3-carboxylic acid, C=CCOC(=O)N1CC[C@@](N[*:1])(C(=O)[*:2])C1; Phe(4-COOH) = N[C@@H](Cc1ccc(C(=O)O)cc1)C(=O)O; Bip = N[C@@H](Cc1ccc(-c2ccccc2)cc1)C(=O)O; R8 = C=CCCCCCC[C@@](C)(N)C(=O)O; Aad = N[C@@H](CCCC(=O)O)C(=O)O; Nle = CCCC[C@H](N)C(=O)O
T1: full-length beta-Catenin (Uniprot ID P35222) (Homo sapiens (Human), UniProt P35222 2-781)
T1 construct: The assay text says 'full-length'; also called B-Catenin; bCat
T1 sequence: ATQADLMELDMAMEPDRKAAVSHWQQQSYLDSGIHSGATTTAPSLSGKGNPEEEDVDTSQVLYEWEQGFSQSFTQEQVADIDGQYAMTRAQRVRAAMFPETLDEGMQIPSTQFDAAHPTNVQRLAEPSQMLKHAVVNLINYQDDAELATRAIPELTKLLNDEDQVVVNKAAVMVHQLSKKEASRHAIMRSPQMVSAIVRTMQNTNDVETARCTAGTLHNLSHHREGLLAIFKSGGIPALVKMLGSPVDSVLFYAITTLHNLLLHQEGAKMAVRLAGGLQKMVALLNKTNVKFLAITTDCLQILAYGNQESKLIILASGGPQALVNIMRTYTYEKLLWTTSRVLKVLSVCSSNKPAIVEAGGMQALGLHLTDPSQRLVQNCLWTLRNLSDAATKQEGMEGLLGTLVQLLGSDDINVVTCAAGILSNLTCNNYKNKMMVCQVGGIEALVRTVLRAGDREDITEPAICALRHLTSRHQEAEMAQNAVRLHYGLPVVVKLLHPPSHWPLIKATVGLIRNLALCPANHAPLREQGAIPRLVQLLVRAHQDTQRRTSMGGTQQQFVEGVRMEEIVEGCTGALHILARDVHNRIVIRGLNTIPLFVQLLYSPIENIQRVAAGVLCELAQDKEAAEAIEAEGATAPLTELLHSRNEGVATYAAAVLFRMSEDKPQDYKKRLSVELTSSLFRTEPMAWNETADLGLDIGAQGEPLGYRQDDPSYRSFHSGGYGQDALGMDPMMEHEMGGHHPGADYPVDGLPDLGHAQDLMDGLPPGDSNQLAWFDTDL


Biological target: T1, full-length beta-Catenin (Uniprot ID …)
Assay: AlphaScreen competition vs biotin-TCF4(10-53) on full-length beta-catenin
Description: Equal volume of the titrated peptide was added to the plate and incubated for 15 minutes at 20° C. Then 4 uL of donor and 4 uL acceptor beads at 10 ug/mL were added to the plate, for a 16 uL reaction pool and protected from light for 60 minutes at 20° C. prior to read. Reads were performed on a CLARIOstar plate reader (BMG Labtech) in duplicate, and data were fitted to a 1:1 binding model with hill slope using an in-house script. All provided concentrations are final concentrations.

| Binder | EC50 [µM] |
| --- | --- |
| Ac-FDA[R8]DDADFV[PyrS]FWQ-NH2 (staple 4-11; not fully specified; printed as Ac-Phe-Asp-Ala-R8-Asp-Asp-Ala-Asp-Phe-Val-PyrS-Phe-Trp-Gln-NH2, Stapled peptide composition) [I-19] | ≥ 10 |
| Ac-FDA[R8]DDAEFV[PyrS]FWQ-NH2 (staple 4-11; also: later-eluting HPLC isomer peak, Stapled peptide composition) [I-22] | ≥ 10 |
| Ac-FDA[R8]DEAAFV[PyrS″]FWQ-NH2 (staple 4-11; not fully specified; printed as Ac-Phe-Asp-Ala-R8-Asp-Glu-Ala-Ala-Phe-Val-PyrS-Phe-Trp-Gln-NH2, Stapled peptide composition) [I-4] | 5.89 |
| Ac-FDA[R8]DEAAFV[PyrS″]FWQ-NH2 (staple 4-11, Stapled peptide composition) [I-3] | 9.13 |
| Ac-FDA[R8]DDAEFV[PyrS]FWQ-NH2 (staple 4-11; not fully specified; printed as Ac-Phe-Asp-Ala-R8-Asp-Asp-Ala-Glu-Phe-Val-PyrS-Phe-Trp-Gln-NH2, Stapled peptide composition) [I-21] | ≥ 10 |
| Ac-FDA[R8]DDADFV[PyrS]FWQ-NH2 (staple 4-11; not fully specified; printed as Ac-Phe-Asp-Ala-R8-Asp-Asp-Ala-Asp-Phe-Val-PyrS-Phe-Trp-Gln-NH2, Stapled peptide composition) [I-20] | ≥ 10 |
| Ac-FDA[R8]D[Bip]AAFV[PyrS″]FWQ-NH2 (staple 4-11; not fully specified; printed as Ac-Phe-Asp-Ala-R8-Asp-Bip-Ala-Ala-Phe-Val-PyrS-Phe-Trp-Gln-NH2, Stapled peptide composition) [I-11] | ≥ 10 |
| Ac-FDA[R8]D[Phe(4-COOH)]AAFV[PyrS″]FWQ-NH2 (staple 4-11, Stapled peptide composition) [I-8] | ≥ 10 |
| Ac-FDA[R8]D[Aad]AAFV[PyrS]FWQ-NH2 (staple 4-11, Stapled peptide composition) [I-6] | 6.5 |
| Ac-FDA[R8]D[Aad]AAFV[PyrS(3)]FWQ-NH2 (staple 4-11; also: earlier-eluting HPLC isomer, E/Z not given here, Stapled peptide composition) [I-5] | ≥ 10 |
| Ac-FDA[R8]D[Nle]AAFV[PyrS]FWQ-NH2 (staple 4-11; not fully specified; printed as Ac-Phe-Asp-Ala-R8-Asp-nLeu-Ala-Ala-Phe-Val-PyrS-Phe-Trp-Gln-NH2, Stapled peptide composition) [I-14] | 9.76 |
